Assay results taken from the supplement of paper PMC10567573.

B1: DCTD (parent)
chain: VKGCSMYVALFPCNECAKLIIQAG
B2: TRIM35 (parent)
chain: PTCPVCKDRASPADLRTNHTLNNL
B3: DYRK1B (parent)
chain: RFQDLVLRMLEYEPAARISPLGAL

Variants of: B1
Assay: protein stability index of a GFP-peptide fusion (GPS, HEK-293T) (PSI 1-6); higher = more stable
Settings: c terminus: a fixed tail appended
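Note: lentivirally expressed fusions sorted by FACS into six bins by GFP to DsRed ratio, PSI derived from sequencing read proportions per bin multiplied by bin number.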

Protein stability index, by site and new letter:
P12: N 3.57, V 4.55, G 2.57, R 2.9, T 2.86, Q 1.81
L10: P 3.06, A 2.48, S 2.2, Q 3.35
K18: C 4.05, W 1, H 2.55, V 4.91, I 1.99, L 1.05, S 4.23
C13: P 1.7, E 2.59
Q22: P 2.51, E 3.39
A9: F 3.38, W 1.94, C 2.79, L 3.68, G 3.16
I20: H 2.4
E15: H 3.15, I 3.06, Q 2.62, N 2.17, V 1.31, G 3.97, W 4.68
K2: F 2.27, W 3.93, R 2.54, S 3.47, H 2.42, T 3.52, V 4.19, D 2.7, P 2.71
C4: S 3.15, A 2.19, L 2.78, F 2.92, V 2.86, P 1.75, E 1.71, R 3.18, T 2.88, I 2.89
I21: T 1.83, W 2.72, D 3.77, V 2.14, E 1.31, S 2.24, L 1.76
C16: M 3.57, K 5.31, N 5.28
A23: G 2.31, P 2.84, L 5.75, E 2.7
G3: F 2.27, Q 3.85, Y 4.09, D 3.8, K 2.53, N 3.06, M 4.03, C 2.07, A 2.9, T 3.43, P 4.11, V 2.23, I 3.94, W 4.42
A17: T 3.02, N 3.32, Q 3.48, H 3.41, I 3.08
F11: Y 2.95, C 3.11, S 2.83, D 4.47
V8: D 1.62, P 2.22, G 1.28, E 1.75, S 2.3, T 2.19, M 2.92, A 2.64, Y 3.08, L 1.94, F 3.62, C 1.9, Q 4.51, N 1.49, W 1.9, K 3.21, H 2.37
S5: E 3.58, D 2.2, H 3.63, P 3.12, M 1.55, C 1.73, N 2.91, Y 1.87, W 3.75, K 2.44, F 2.58
V1: W 2.09, P 2.74, G 3.72, S 3.18, E 2.15, H 1.54, K 3.98, A 1.7, I 2.68, T 3.12, F 3.94, C 2.61, M 3.04
L19: T 2.23, W 2.99, D 2.4, C 3.04, M 2.14, E 5.26, F 3.88
G24: H 3.84, E 2.98, N 2.86, T 3.17, K 1.76, A 2, V 2.98
N14: F 2.99, K 1.92, P 2.04, M 2.9
M6: C 2.7, A 3.35, L 4.51, N 2.2, T 2.33, S 2.46, E 2.2, I 3.81, D 1.7, Y 2.7, Q 3.17, H 2.21, R 1.58
Y7: L 4.45, A 2.65, H 1.78, T 1.91, D 1.68, C 2.84, I 3.49, F 2.5, W 2.92, M 4.09

Variants of: B2
Assay: as above
Settings: c terminus: a fixed tail appended

Protein stability index: each site, then its substitutions
T2: G 2.95, W 2.2, R 3.12, Y 2.3, V 3.82, Q 3.27, K 3.52, M 3.14, P 3.58, S 3.24, C 2.9, D 3.68, E 3.47, F 2.33, I 2.71, H 2.82, N 3.26, L 2.79, A 3.67
V5: D 4.16, F 2.04, A 3.33, C 3.15, E 3.65, G 3.7
P4: A 2.72, E 3.42, M 3.16, H 3.03, Y 3.01, K 3.21, F 2.73, Q 3.28, V 3.19, I 2.72, L 3.32, R 3.38, D 3.71, S 2.98, G 2.71, N 3.26, W 2.58, C 2.79, T 3.3
P1: I 2.63, H 2.95, Y 2.47, S 2.8, T 2.99, E 2.75, R 2.56, F 2.11, L 2.62, K 2.82, Q 2.7, G 2.17, M 2.62, V 2.85, W 1.6, N 2.41, A 2.64, D 3.2, C 3.87
C3: I 4.38, N 4.05, M 4.08, H 3.84, R 4.46, K 4, E 4.06, P 4.02, L 4.28, A 4.44, F 3.79, G 4.3, D 4.75, Y 3.24, S 4.55, T 4.36, V 4.1, Q 4.24, W 3.89

Variants of: B3
Assay: as above
Settings: c terminus: a fixed tail appended

Protein stability index of substitutions, site by site:
L21: M 1.68, Y 2.98, T 2, R 1.77, V 2.56, H 3.73, D 1.78, P 1.93, F 1.36, K 1.19, S 2.27, I 2.48, E 1.56, C 1.98, A 1.75
I18: Q 2.04, T 1.3, R 1.15, S 2.1
A23: Q 2.06, D 1.42, T 2.04, G 2.75, Y 2.71, F 1.59, R 2.45, K 1.29, H 2.52, M 2.25
S19: V 2.91, K 3.06, L 4.05, Y 3.82, P 2.61, Q 1.55, G 1.07, E 3.96, R 2.38, D 1.76, A 1.17
L24: N 1.82, A 2.93, G 1.35, E 2.36, C 2.82, K 1.31, T 4.33, Q 2.27, I 4.35, H 2.36, P 1.6, S 2.08, F 1.95, D 2.29
G22: C 1.86, L 2.02, M 2.2, A 2.95, W 2.76, T 3.41, I 2.49, E 3.2, D 2.68, K 2.67, F 2.04, H 1.52, Y 1.71, V 3.1
P20: Q 2.29, T 2.1, F 2.2, C 3.75, W 3.32, V 3.27, Y 4.39, E 2.84, G 2.01, I 2.64, N 3.12, S 2.53
